Reference: patent US20230295335A1

Columns and labels:
[1] = molecular target: neonatal Fc receptor (FcRn), His-tagged (SinoBiological, cat. no. CT009-H08H-B) (UniProt P55899); experiment: SPR kinetics assay at pH 6.0; His-tagged FcRn captured on anti-His chip, antibody 0-100 nM; mean of three experiments
[2] = molecular target: neonatal Fc receptor (FcRn), His-tagged (SinoBiological, cat. no. CT009-H08H-B) (UniProt P55899); experiment: SPR kinetics assay at pH 6.0; His-tagged FcRn captured on anti-His chip, antibody 0-100 nM

Sequence of neonatal Fc receptor (FcRn), His-tagged (SinoBiological, cat. no. CT009-H08H-B) (P55899 24-297 limits assumed, form in doubt): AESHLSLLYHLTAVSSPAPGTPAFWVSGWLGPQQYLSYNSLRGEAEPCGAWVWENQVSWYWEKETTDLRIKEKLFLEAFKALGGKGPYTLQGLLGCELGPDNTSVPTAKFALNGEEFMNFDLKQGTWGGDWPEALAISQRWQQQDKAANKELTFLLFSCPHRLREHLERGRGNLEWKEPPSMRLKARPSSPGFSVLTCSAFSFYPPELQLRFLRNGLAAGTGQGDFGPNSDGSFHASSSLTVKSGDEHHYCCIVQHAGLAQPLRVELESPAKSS

Kd [1]: 0.029 µM | koff [2]: 0.0322 s⁻¹ | kon [2]: 1.1e+06 M⁻¹ s⁻¹
Substance: IgG1-b12 (antibody)
